Measured values taken from publication doi:10.1101/2020.07.01.182642v1.

Test system: Nc1ncnc2c1ncn2[C@@H]1O[C@H](COP(=O)(O)OP(=O)(O)OP(=O)(O)O)[C@@H](O)[C@H]1O
Assay: Omnia kinase assay
Type: biochemical, Homo sapiens
Conditions: Sox peptide co-substrate, pH 7.5, 25 mM MgCl2, 25 °C

Substance | Km
CLK3 (R134-T484) (Homo sapiens) | 58.9 ± 20.3 µM
CLK3 (R134-T484) (Homo sapiens; A319V) | 8.6 ± 4.2 µM
